Assays:
NF-κB = NF-κB activation, EMSA, RelA^−/− MEFs; assay type: cell-based, mouse; settings: TNF-α stimulation
Experimental: The possibility that Spi2A protects from TNF-α-induced apoptosis by directly activating NF-κB was examined. Therefore, using electrophoretic mobility shift assays (EMSAs), studies were conducted to determine whether Spi2A itself promotes NF-κB activation in nuclei from Rel A^−/− MEFs transduced with Spi2A or whether the abrogation of Spi2A mRNA up-regulation by Spi2A antisense message inhibits NF-κB activation in Rel A^+/+ MEFs. […] In Rel A^+/+ MEFs, super-shift analysis confirmed the induction of p50/Rel A by TNF-α. […] Thus, the anti-apoptotic activity of Spi2A is unlikely to be mediated through the modulation of NF-κB activation.

human cathepsin H = target: T1, human cathepsin H (Homo sapiens, UniProt P09668); test: Protease specificity of Spi2A: cathepsin H; assay type: biochemical; settings: protease 20 nM, Spi2A 200 nM, 1 h at 37° C; FIG. 6B
T1 construct: purchased Calbiochem or Athens Research and Technology
T1 sequence (P09668 98-335): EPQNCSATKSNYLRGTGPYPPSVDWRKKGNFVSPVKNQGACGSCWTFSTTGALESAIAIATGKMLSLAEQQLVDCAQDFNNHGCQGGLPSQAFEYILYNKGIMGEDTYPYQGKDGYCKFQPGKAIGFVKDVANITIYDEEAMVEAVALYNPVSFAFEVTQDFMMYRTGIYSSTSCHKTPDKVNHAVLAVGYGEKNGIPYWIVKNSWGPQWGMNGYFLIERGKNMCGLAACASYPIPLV
Experimental: (§1) Protease specificity of Spi2A. RelA^−/− MEFs were transduced with retrovirus encoding Spi2A with a C-terminal 3×FLAG epitope tag and Spi2A-3×FLAG purified using a method described previously (Cooley et al., 1998). Briefly, cells (3×10^9) were lysed and Spi2A-3×FLAG (75 μg) purified by batch Q-Fast Flow ion-exchange chromatography (Pharmacia Biotech) after elution at 160-220 mM NaCl followed by anti-FLAG antibody columns, performed according to manufacturer's instructions (Sigma-Aldrich). Spi2A-3×FLAG was dialysed into PBS and stored as aliquots at −80° C. until needed.
(§2) Proteases were purchases from the manufacturers (Calbiochem or Athens Research and Technology) except granzymes A and B which were purified as described (Hanna et al., 1993) and cathespin V and K, which were purified as described (Bromme et al., 1999; Linnevers et al., 1997). Proteases (20 nM) were incubated in the appropriate assay buffer with Spi2A at 200 nM (at least 10-fold excess of inhibitor to maintain pseudo-first order conditions) for 1 h at 37° C. Control samples included only the enzyme, without the inhibitor. At the end of 1 h protease activity was assayed. […] Substrate hydrolysis was measured in a fluorescence microtiter plate reader (Spectramax Gemini XS, Molecular Devices). Percentage inhibition was calculated from the residual enzyme activity compared to no Spi2A controls. […]

[1] = test system: CD8 cells and B lymphocytes in PBLs; test: Generation of bone marrow chimeras transduced with retrovirus: engraftment of CD8 cells and B lymphocytes in PBLs; assay type: in vivo, mouse; settings: 8 weeks after bone-marrow transfer, before infection; vs GFP mice
human cathepsin V = target: T2, human cathepsin V (Homo sapiens, UniProt O60911); test: Protease specificity of Spi2A: cathepsin V; assay type: biochemical; settings: protease 20 nM, Spi2A 200 nM, 1 h at 37° C; FIG. 6B
T2 construct: made in house
Experimental: as §1, §2

T2 sequence (O60911 114-334): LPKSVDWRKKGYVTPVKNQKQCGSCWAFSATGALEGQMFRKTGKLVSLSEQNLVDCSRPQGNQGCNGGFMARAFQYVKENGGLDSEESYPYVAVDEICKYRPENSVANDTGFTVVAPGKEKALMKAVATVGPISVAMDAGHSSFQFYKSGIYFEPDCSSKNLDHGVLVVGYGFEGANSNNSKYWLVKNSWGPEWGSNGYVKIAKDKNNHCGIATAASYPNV

B1: Spi2A: murine Spi2A polypeptide, SEQ ID NO:2; purified as C-terminal 3×FLAG protein or expressed from MIGR1 retrovirus in cells and bone-marrow chimeras (protein, listed as Mus musculus)
chain: MAGVSPAVFGCPDVTLGRNTAVREVQENVTSVDSLTLVSSNTDFAFSLYRKLVLKNPDENVVFSPFSICTALALLSLGAKSNTLKEILEGLKFNLTETPEPDIHQGFRYLLDLLSQPGNQVQISTGSALFIEKHLQILAEFKEKARALYQAEAFTADFQQPLKATKLINDYVSNHTQGKIKELISGLKESTLMVLVNYIYFKGKWKNPFDPNDTFKSEFYLDEKRSVIVSMMKTGYLTTPYFRDEELSCTVVELKYTGNASAMFILPDQGRMQQVEASLQPETLRKWKNSLKPRMIHELRLPKFSISTDYSLEHILPELGIREVFSTHADLSAITGTKDLRVSQVVHKAVLDVAEKGTEAAAATGMAGVGCCAVFDFLEIFFNRPFLMIISDTKAHIALFMAKVTNPERSTNFPNGEGASSQRLESKRLCFGDPLCLIGQ
modifications: C-terminal 3xFLAG tag
notes: purified as C-terminal 3×FLAG protein or expressed from MIGR1 retrovirus in cells and bone-marrow chimeras
With B1 the “Expression of NF-κB complexes (p50/p50, p50/Rel) in nuclei” value (NF-κB) was “did not affect”, the “Inhibition of protease by Spi2A (percentage inhibition)” value (human cathepsin H) was “extended to all of the lysosomal, papain-like proteases that were examined” and the “Percentage of CD8 cells in transduced (GFP-positive) PBLs” value [1] was “no difference”. The “Inhibition of protease by Spi2A (percentage inhibition)” value (human cathepsin V) was “extended to all of the lysosomal, papain-like proteases that were examined”.
